Molecular target: lysozyme (UniProt P00698 19-147)
Assay: AF4-UV (asymmetrical flow field-flow fractionation); concentration-dependent; among highest affinity with A80; PBS-Mg2+ buffer (also mobile phase; composition, pH and temperature not given in the material); 10 uL of 5 uM aptamer + 10 uL of 5, 10, 25 or 50 uM protein (1:1 to 1:10); detection at 260 nm; n = 3
Settings: protein: commercial; label: none

Chain of lysozyme (P00698 19-147): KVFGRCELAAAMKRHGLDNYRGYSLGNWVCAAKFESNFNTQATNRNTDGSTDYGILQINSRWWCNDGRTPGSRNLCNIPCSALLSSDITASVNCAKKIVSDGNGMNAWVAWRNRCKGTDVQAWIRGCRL

**Q.** Does GCAGCTAAGCAGGCGGCTCACAAAACCATTCGCATGCGGC (ssDNA) [A40] bind?
**A.** binds
